Experimental data: the supplement of paper PMC9170038

Columns and labels:
MS2 coat protein [1] = test: apparent KD of MS2 coat protein, switch ON state; designed switch direction (-1 OFF switch, 1 ON switch): -1; higher = weaker reporter binding; conditions: FMN input: 0 or 200 uM; Eterna round: R93 (includes R88 designs)
Method in brief: (§1)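 Titration buffer: 100 mM Tris-HCl pH 7.5, 80 mM KCl, 4 mM MgCl2, without or with constant ligand. Designed RNA switches transcribed on-chip from Illumina sequencing clusters received SNAP-549-labelled MS2 coat protein in twofold steps from 0.7 or 1.5 nM to 3 µM. Apparent KD is the median per design of fits to normalised cluster binding curves.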

MS2 coat protein [2] = test: apparent KD of MS2 coat protein, switch OFF state (with FMN for OFF switches, without FMN for ON switches); designed switch direction (-1 OFF switch, 1 ON switch): -1; higher = weaker reporter binding; conditions: FMN input: 0 or 200 uM; Eterna round: R93 (includes R88 designs)
Method in brief: as §1

MS2 coat protein [3] = test: apparent KD of MS2 coat protein; designed switch direction (-1 OFF switch, 1 ON switch): 1; higher = weaker reporter binding
Method in brief: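 The buffer was Tris-HCl pH 7.5 with KCl, MgCl2, BSA, DTT, tRNA and Tween-20. In it, SNAP-549-labelled MS2 coat protein was titrated in doubling steps from 0.7 or 1.5 nM to 3 µM over chip-bound RNA switches transcribed by stalled E. coli RNA polymerase on Illumina chips. Apparent KD is the per-design median over clusters of curve fits to normalised fluorescence.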

[4] = input ligand: microRNA oligo, concentration not stated
[5] = Eterna round: R95, input ligand: FMN 200 uM
[6] = Eterna round: R95, input ligand: microRNA oligo, concentration not stated
[7] = Eterna round: R95, input ligand: none

Sequence | apparent KD of MS2 coat protein (MS2 coat protein [1]) [nM] | apparent KD of MS2 coat protein (MS2 coat protein [2]) [nM] | apparent KD of MS2 coat protein (MS2 coat protein [3]; input ligand: FMN 200 uM) [nM] | apparent KD of MS2 coat protein (MS2 coat protein [3]; [4]) [nM] | apparent KD of MS2 coat protein (MS2 coat protein [3]; input ligand: none) [nM] | further results
AAAAAACAUGAGGAUCACCCAUGUAAGGAUAUCUAAAAUAAAAGAAAAAUAAAGAAAAGGAGAAGGUAUAUGGA [JL wbt mod 24] | 27.1 | 37.3 | – | – | – | –
AAAAAACAUGAGGAUCACCCAUGUAAGGAUAUGCUAAAAAACGCAAAAAAAGCGAAUAGCAGAAGGUACAAAAG [Mat - Exclusion 1 - Eli mod - D81] | 36.4 | 70.5 | – | – | – | –
AAAAAACAUGAGGAUCACCCAUGUAAGGAUAUGCUGAAAAACACGGAAAAAACGUGCAGCAGAAGGUACAAAGA [Mat - Exclusion 1 - Eli mod - D96] | 18.3 | 39.9 | – | – | – | –
AAAAAACAUGAGGAUCACCCAUGUAAGGAUAUGUAAAACCCAUAUAAAAAGGGAAAAAACAGAAGGUGCAAAAA [wbt round 1 mod 6] | 35.1 | 30.4 | – | – | – | –
AAAAAACAUGAGGAUCACCCAUGUAAGGAUAUGUAAAAUAAAAGAAAAAUAAAGAAAAGCAGAAGGUACAUGAA [JL wbt mod 14] | 37 | 60.5 | – | – | – | –
AAAAAACAUGAGGAUCACCCAUGUCAGGAUAUCCGGUUCUUAAAAAAAAAGAGGCGUUGGAGAAGGGACAUUCC [Chica Displaced 12 - Jieux - Exclusion 1] | 26.7 | 41.7 | – | – | – | –
AAAAAACAUGAGGAUCACCCAUGUCAGGAUAUCGUAAAAAAAAAAAAAAAAAAAAAUGCGAGAAGGGACUGGAA [exclusion1-cac2] | 86.9 | 94.5 | – | – | – | –
AAAAAACAUGAGGAUCACCCAUGUCAGGAUAUCUGUAUUCAAUCCUCGGAUUGAAUACAGAGAAGGGACAUAAA [Ex1: 605] | 46.2 | 126 | – | – | – | –
AAAAAACAUGAGGAUCACCCAUGUCAGGAUAUCUGUAUUCAAUCCUCGGAUUGAAUACAGAGAAGGGACAUGGG [Ex1: 601] | 22.6 | 18 | – | – | – | –
AAAAAACAUGAGGAUCACCCAUGUCAGGAUAUGCGAAGCAAAAAAAAAAAAAAGCGAAGUAGAAGGGACUAAAA [Exclusion1 Malc#6] | 24.4 | 40.1 | – | – | – | –
AAAAAACAUGAGGAUCACCCAUGUCAGGAUAUGCUCAACAAUAUUCCAAAAAAGAACGGUAGAAGGGACAGGAA [Bilbo Confounded 25 - Jieux - Exclusion 1] | 30.4 | 22.3 | – | – | – | –
UUAAUGAAGUAAGGAUAUACAUGAGGAAUUCUCGUAGAAGGUACUAUACAUGAGGAUCACCCAUGUGCCGGUCAGAAGACUGGA [Mat - Same State NG 1 - JL mod - D11] (Eterna round: R96, puzzle: Same State NG 1) | – | – | 454 | 302 | 415 | –
UUAAUUUAUUGAGGAUAUUAUGUCGACUGAGUUGACAUGAGGAUCACCCAUGUGAGAAGUGGUAUUAAGAAGGCAAUAUUCAUA [JR_SSNG2_Sub087] (Eterna round: R96, puzzle: Same State NG 2) | – | – | 39.8 | 118 | 115 | –
UUACUCAUGUAAGGAUAUGCAGCCGAAACGGCUGCAGAAGGUACUAUAAUACAUGAGGAUCACCCAUGUAAAAUAAAUAAAGUU [Mat - Same State NG 1 - JL mod - D97] (Eterna round: R96, puzzle: Same State NG 1) | – | – | 29.1 | 32 | 35.9 | –
UUACUCAUGUAAGGAUAUGCAGCCGUUUCGGCUGCAGAAGGUACUAUAAUACAUGAGGAUCACCCAUGUCUCUAUUAUUUAGUG [salish99_SSNG1_r04_922] (Eterna round: R96, puzzle: Same State NG 1) | – | – | – | 39.9 | – | –
UUACUCAUGUAAGGAUAUGCAGCCGUUUCGGCUGCAGAAGGUACUAUAAUACAUGAGGAUCACCCAUGUCUUUUUAAUUUAGAC [JL SSNG1 1.29] (Eterna round: R96, puzzle: Same State NG 1) | – | – | 56.2 | 30.7 | 47.8 | –

Sequence | apparent KD of MS2 coat protein (MS2 coat protein [1]) [nM] | apparent KD of MS2 coat protein (MS2 coat protein [2]) [nM] | apparent KD of MS2 coat protein (MS2 coat protein [3]; input ligand: FMN 200 uM) [nM] | apparent KD of MS2 coat protein (MS2 coat protein [3]; [4]) [nM] | apparent KD of MS2 coat protein (MS2 coat protein [3]; input ligand: none) [nM] | further results
UUAUAACAUGAGGAUCACCCAUGUCAUCUAAGUCGAGGAUAUGGGCAAAUAAUAUAAGAACCAGAAGGCGAAUAUU [Mat - Same State 1 - Mod of UCT - D46] (puzzle: Same State 1) | – | – | – | – | – | apparent KD of MS2 coat protein (MS2 coat protein [3]; [5]): 106 nM; apparent KD of MS2 coat protein (MS2 coat protein [3]; [6]): 147 nM; apparent KD of MS2 coat protein (MS2 coat protein [3]; [7]): 232 nM
UUAUCCUUUUUUUACAUGAGGAUCACCCAUGUUUUUCUUACGUAGGAUAUCGUUGUUUUUUUUUACGAGAAGGACGUAGUAUGU [JR_SSND3_Sub062] (Eterna round: R96, puzzle: Same State NG 3) | – | – | 35.8 | 30.4 | 36.5 | –
UUAUCGCUUGGAGGAUAUCCAACUAUACUAAUUGGAGAAGGCCAAGCUACAGAGCUAAGCUUGGAAGUCACUUCGAAUCAACAC [pwkr ssNG1 F9.3] (Eterna round: R96, puzzle: Same State NG 1) | – | – | 33.2 | 5.18 | 48.8 | –
UUAUCUCAGACAUGAGGAUCACCCAUGUGGUUAUGACUUAGACAGGAUAUAGUAGUAUCGAAAUACUAGAAGGGUCAUUUUAUU [JR_SSNG3_Sub021] (Eterna round: R96, puzzle: Same State NG 3) | – | – | 73.4 | 97.5 | 143 | –
UUAUCUCAGACAUGAGGAUCACCCAUGUUUUUUUGUCUUUGACAGGAUAUAGUUGUUUCGUUUUACUAGAAGGGUCAUUUUAUU [JR_SSNG3_Sub024] (Eterna round: R96, puzzle: Same State NG 3) | – | – | 20.3 | 20.8 | 29.8 | –
UUAUCUCUUACAUGAGGAUCACCCAUGUUUUUAUGUCUUAGACAGGAUAUAGUAGUCUCGUUUUACUAGAAGGGUCUUUUUAUU [JR_SSNG3_Sub019] (Eterna round: R96, puzzle: Same State NG 3) | – | – | 28.9 | 39.8 | 51.4 | –
UUAUUAUUUACAUGAGGAUCACCCAUGUUUUUAUGUCAGAGAUAGGAUAUAGUAGUCUCGUUUUACUAGAAGGAUCUUUUUAUU [JR_SSNG3_Sub084] (Eterna round: R96, puzzle: Same State NG 3) | – | – | 13.4 | 15.8 | 19.9 | –
UUAUUAUUUACAUGAGGAUCACCCAUGUUUUUAUGUCAGAGAUAGGAUAUAGUUUUCUCGUUUUUCUAGAAGGAUCUUUUUAUU [JR_SSNG3_Sub085] (Eterna round: R96, puzzle: Same State NG 3) | – | – | 18.6 | 17 | 22.8 | –
UUCCUACAUGAGGAUCACCCAUGUGACGCCUCGAUAGGAUAUGCGUGUGCCUUGGCGCAUGCAGAAGGGUUGUAGC [JL Aveso mod 9] (puzzle: Same State 1) | – | – | – | – | – | apparent KD of MS2 coat protein (MS2 coat protein [3]; [5]): 39.2 nM; apparent KD of MS2 coat protein (MS2 coat protein [3]; [6]): 34.8 nM; apparent KD of MS2 coat protein (MS2 coat protein [3]; [7]): 37.5 nM
UUCUCACAUGAGGAUCACCCAUGUGAGCCUCUGUGAGGAUAUCCGACAUAAUUAAGUGAAGGAGAAGGUACACGAG [Malean] (puzzle: Same State 1) | – | – | – | – | – | apparent KD of MS2 coat protein (MS2 coat protein [3]; [5]): 24.8 nM; apparent KD of MS2 coat protein (MS2 coat protein [3]; [6]): 30.2 nM; apparent KD of MS2 coat protein (MS2 coat protein [3]; [7]): 19.5 nM
UUCUUACAUGAGGAUCACCCAUGUGUUGUCGUGGGAGGAUAUCCUUGUUCGGUGGCGUUGGGAGAAGGCCUAUGUU [× ×•×ª×• ×ž×“×™× ×” × ×—×ª-20] (puzzle: Same State 1) | – | – | – | – | – | apparent KD of MS2 coat protein (MS2 coat protein [3]; [6]): 40.4 nM
UUGCUCGUGUGAGGAUAUGCCGCCGUUUCGGCUGCAGAAGGUACUAUAAUACAUGAGGAUCACCCAUGUCUCUGUUGUUUCGUG [salish99_SSNG1_r04_932] (Eterna round: R96, puzzle: Same State NG 1) | – | – | – | 23.7 | – | –
UUGGUGUAGAUACAGGAUAUGUUGAUUGUAACAUGAGGAUCACCCAUGUAUCUAUGAGAUUAAAUGCAGAAGGGUGCACAUCACU [salish99_ss2_r3_090] (puzzle: Same State 2) | – | – | – | – | – | apparent KD of MS2 coat protein (MS2 coat protein [3]; [5]): 209 nM; apparent KD of MS2 coat protein (MS2 coat protein [3]; [6]): 92.9 nM; apparent KD of MS2 coat protein (MS2 coat protein [3]; [7]): 276 nM
UUGUAUCGAAAAGGAUAUCAUGGGCAACGGUACUGAGAAGGUUUCGAGCUCGAACGAGCAACAUGAGGAUCACCCAUGUCCGAG [Eternabot solution 50] (Eterna round: R96, puzzle: Same State NG 1) | – | – | 337 | 280 | 212 | –
UUGUUUCGUCAUUAACAUGAGGAUCACCCAUGUCUUGGCCCAGAGGAUAUGCAUGUUUGAUUGUAGCAGAAGGCUGAUUGUUGU [JR_SSNG3_Sub031] (Eterna round: R96, puzzle: Same State NG 3) | – | – | 25.9 | 34.9 | 42.5 | –
UUUAGUUGCGGGCAGGAUAUGUAUUAAAAUACAUGAGGAUCACCCAUGUGAGGUCAUAAAGACCUACAGAAGGGCCAAUCGCGAC [Laonerce - 16] (puzzle: Same State 2) | – | – | – | – | – | apparent KD of MS2 coat protein (MS2 coat protein [3]; [5]): 16.5 nM; apparent KD of MS2 coat protein (MS2 coat protein [3]; [6]): 64.8 nM; apparent KD of MS2 coat protein (MS2 coat protein [3]; [7]): 66.2 nM
